pKd: −log10 of the molar value.
Key:
[1] = biological target: mouse sFlt-1-Fc (mouse) (UniProt P35969); assay: ELISA
[2] = biological target: VEGFR-2 (Homo sapiens) (UniProt P35968); settings: cited from earlier work
UniProt P35968, sequence (P35968 20-1356): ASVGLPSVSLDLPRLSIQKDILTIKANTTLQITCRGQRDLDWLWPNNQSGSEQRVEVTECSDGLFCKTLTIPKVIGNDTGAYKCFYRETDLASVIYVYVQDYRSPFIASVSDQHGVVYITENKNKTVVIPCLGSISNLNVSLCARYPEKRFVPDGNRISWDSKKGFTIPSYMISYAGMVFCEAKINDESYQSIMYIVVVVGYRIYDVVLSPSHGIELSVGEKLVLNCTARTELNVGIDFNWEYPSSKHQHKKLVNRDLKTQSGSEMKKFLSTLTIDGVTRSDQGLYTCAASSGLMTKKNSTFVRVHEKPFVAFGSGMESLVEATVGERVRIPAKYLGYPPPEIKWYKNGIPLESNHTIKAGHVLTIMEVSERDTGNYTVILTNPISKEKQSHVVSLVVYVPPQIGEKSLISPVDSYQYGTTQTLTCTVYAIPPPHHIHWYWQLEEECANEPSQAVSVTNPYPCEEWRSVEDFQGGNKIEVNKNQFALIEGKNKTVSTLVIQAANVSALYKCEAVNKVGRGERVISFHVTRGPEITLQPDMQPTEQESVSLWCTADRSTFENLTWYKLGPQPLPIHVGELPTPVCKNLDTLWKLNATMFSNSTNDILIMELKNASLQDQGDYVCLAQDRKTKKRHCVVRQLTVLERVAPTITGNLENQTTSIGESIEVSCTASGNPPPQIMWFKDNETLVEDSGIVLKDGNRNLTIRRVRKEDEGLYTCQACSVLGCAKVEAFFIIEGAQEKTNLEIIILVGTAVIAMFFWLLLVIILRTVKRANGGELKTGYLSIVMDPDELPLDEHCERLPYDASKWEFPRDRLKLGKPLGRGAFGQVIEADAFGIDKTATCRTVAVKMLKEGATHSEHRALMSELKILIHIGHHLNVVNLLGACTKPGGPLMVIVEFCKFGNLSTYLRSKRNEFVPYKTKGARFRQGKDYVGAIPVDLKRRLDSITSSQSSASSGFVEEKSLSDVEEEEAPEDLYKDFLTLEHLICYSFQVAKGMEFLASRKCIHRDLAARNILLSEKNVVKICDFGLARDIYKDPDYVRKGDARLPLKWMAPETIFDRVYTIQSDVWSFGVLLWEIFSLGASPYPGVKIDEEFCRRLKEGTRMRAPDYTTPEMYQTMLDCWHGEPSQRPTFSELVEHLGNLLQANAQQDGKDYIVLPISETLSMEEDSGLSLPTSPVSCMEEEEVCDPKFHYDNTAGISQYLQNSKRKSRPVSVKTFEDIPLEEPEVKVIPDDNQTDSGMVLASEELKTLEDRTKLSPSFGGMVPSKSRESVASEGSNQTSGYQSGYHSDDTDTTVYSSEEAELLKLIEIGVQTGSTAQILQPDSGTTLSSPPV

UniProt P35969, sequence (P35969 23-758): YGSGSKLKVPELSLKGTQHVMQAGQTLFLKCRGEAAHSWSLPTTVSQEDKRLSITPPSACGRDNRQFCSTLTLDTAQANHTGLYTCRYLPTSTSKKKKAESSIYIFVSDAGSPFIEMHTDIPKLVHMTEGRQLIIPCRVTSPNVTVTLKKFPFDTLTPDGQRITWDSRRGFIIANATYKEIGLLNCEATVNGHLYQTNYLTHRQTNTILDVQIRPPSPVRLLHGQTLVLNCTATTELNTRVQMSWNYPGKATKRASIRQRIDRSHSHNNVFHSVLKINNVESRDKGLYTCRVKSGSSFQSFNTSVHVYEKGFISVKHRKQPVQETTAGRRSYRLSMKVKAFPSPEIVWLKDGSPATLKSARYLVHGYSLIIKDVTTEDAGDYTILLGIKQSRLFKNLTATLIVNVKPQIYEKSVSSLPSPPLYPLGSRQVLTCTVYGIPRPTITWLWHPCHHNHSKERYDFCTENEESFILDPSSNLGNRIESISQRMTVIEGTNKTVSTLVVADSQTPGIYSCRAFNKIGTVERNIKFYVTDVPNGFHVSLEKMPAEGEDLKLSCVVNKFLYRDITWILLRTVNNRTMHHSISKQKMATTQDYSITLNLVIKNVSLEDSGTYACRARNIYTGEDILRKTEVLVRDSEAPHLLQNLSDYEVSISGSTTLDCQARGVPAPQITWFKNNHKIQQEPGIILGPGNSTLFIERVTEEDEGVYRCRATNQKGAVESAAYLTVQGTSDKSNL

With VEGF165 (ligand) as the substance, how does the percent decrease of ELISA-detectable sFlt-1 when VEGF was co-expressed [1] read?
The percent decrease of ELISA-detectable sFlt-1 when VEGF was co-expressed was 70 to 80%.

And the percent decrease of free sFlt-1 in plasma of co-treated mice [1]?
The percent decrease of free sFlt-1 in plasma of co-treated mice was greater than 70%.

With VEGF (from UniProt P15692) as the substance, how does the pKd [2] read?
The pKd was 9.12.

Source: article PMC3829045
